Laboratory results published in the RNAGym collection of RNA variant scans (doi:10.7554/elife.80360).

B1: HDV Ribozyme (parent)
chain: GGCCGGCAUGGUCCCAGCCUCCUCGCUGGCGCCGGCUGGGCAACAUUCCGAGGGGACCGUCCCCUCGGUAAUGGCGAAUGGGACCCA

Variants of: B1
Test: self-cleavage, relative activity (ratio to wild type); higher = more cleavage; co-transcriptional

Point of comparison: C7G C36U, self-cleavage 0.0504. Against it:
- C7U A16C — higher, 0.196
- A8U U47C — higher, 0.68
- A8C A83U — higher, 0.237
- A8C A83C — higher, 0.317
- A8U C19A — lower, 0
- C7G U69A — higher, 0.237
- A8G C61A — higher, 0.886
- C7G C86U — higher, 0.383
- C7A U37A — higher, 0.229
- C7A U37C — higher, 0.719
- C7U G50U — higher, 0.864
- A8C G50A — higher, 0.96
- C7G A77G — higher, 0.0755
- C7G A77U — higher, 0.0875
- C7G G39C — lower, 0
- C7G G39A — higher, 0.147
- A8U A42G — higher, 0.111
- A8U G35C — higher, 0.0639
- C7G A45U — higher, 0.383
- A8U A83G — higher, 0.746
- A8U A83C — lower, 0
- A8G A45G — higher, 0.9
- A8C U20G — higher, 0.175
- C7A G73C — higher, 0.106
- C7A G73U — higher, 0.128
- A8G U79C — higher, 0.256
- A8G U79A — higher, 0.692
- A8C U79A — higher, 0.506
- A8U G31U — lower, 0.0475
- C7G U47C — higher, 0.293
- A8G G68A — higher, 1.03
- A8G U65A — higher, 0.89
- C7G C36G — higher, 0.0723
- C7G C36A — higher, 0.111
- C7U A56G — higher, 0.997
- C7U A56C — higher, 0.806
- A8C C61A — higher, 0.931
- C7G G81U — higher, 0.0594
- A8G G38A — higher, 0.0959
- A8G G38U — lower, 0.0405
- C7G G73A — higher, 0.0639
- C7U U27G — higher, 0.431
- C7G C48G — lower, 0
- C7G G52U — higher, 0.196
- A8G C85G — higher, 0.895
- C7G G59U — higher, 0.237
- A8U G74U — higher, 0.173
- A8C G28C — lower, 0
- C7U U69A — higher, 0.718
- C7G G10U — lower, 0.0462
- C7A G54C — higher, 0.8
- C7G C22G — higher, 0.0791
- C7G C22U — higher, 0.0898
- C7G U20A — lower, 0
- A8C U69C — higher, 0.831
- A8U A71C — higher, 0.703
- A8U A71G — higher, 0.917
- A8U A71U — higher, 0.917
- A8C C57G — higher, 0.87
- A8C G55A — higher, 0.636
- A8U G52C — higher, 0.779
- C7G G76C — higher, 0.151
- C7A U23G — higher, 0.19
- C7U U23G — higher, 0.332
- A8G A16C — higher, 0.639
- A8G A16U — higher, 0.895
- A8C G54A — higher, 0.759
- A8C G54U — higher, 0.618
- A8G C18G — lower, 0
- C7G C44U — lower, 0.0462
- C7U C85A — higher, 0.665
- C7G U46C — lower, 0
- C7G A87U — higher, 0.284
- C7U C33U — higher, 0.672
- C7U C33G — higher, 0.0536
- C7G G80A — higher, 0.145
- A8G C86U — higher, 1.11
- C7U U12G — higher, 1.02
- C7A U9G — higher, 0.396
- C7U G39C — higher, 0.0923
- C7G A71G — higher, 0.151
- C7G U37C — higher, 0.399
- C7G U37G — lower, 0
- C7G U79A — higher, 0.123
- A8C G82C — higher, 0.0923
- A8U U60A — higher, 0.939
- U9A — higher, 1.04
- A8C C22A — higher, 0.249
- C7G G40C — lower, 0
- C7G G40A — higher, 0.0536
- C7G G40U — higher, 0.268
- A8U G29C — higher, 0.0554
- A8C C30U — higher, 0.415
- A8C C30A — lower, 0.0462
- A8C C48U — higher, 0.776
- A8C C48G — higher, 0.175
- A8C U23C — higher, 0.506
- A8C U37A — higher, 0.128
- A8C U37C — higher, 0.997
- A8G U69A — higher, 0.942
- A8G U20G — higher, 0.151
- A8G U20A — higher, 0.151
- C7G G11A — lower, 0.0346
- U9A A71C — higher, 1.05
- C7U G67A — higher, 0.904
- C7U G67U — higher, 0.684
- A8U C32U — higher, 0.554
- C7G C61A — higher, 0.486
- C7G C61G — higher, 0.287
- A8U G10C — higher, 0.639
- A8U C22A — higher, 0.0923
- C7G U9C — lower, 0
- A8U C66A — higher, 1.06
- A8C G17U — higher, 0.287
- A8U C41U — higher, 0.594
- A8C A42U — higher, 0.133
- A8C A42C — higher, 0.201
- A8U G11U — higher, 0.201
- A8U G80C — higher, 0.128
- A8U G80U — higher, 0.0715
- A8U U37G — higher, 0.222
- C7U G74U — higher, 0.202
- C7U G35C — lower, 0
- A8C C32G — higher, 0.185
- A8C C32U — higher, 0.538
- A8U C15U — higher, 0.935
- A8C G80C — higher, 0.133
- A8U A43G — higher, 0.578
- C7A G53A — higher, 0.642
- C7A G53U — higher, 0.544
- C7U A87C — higher, 0.968
- C7U A87U — higher, 0.938
- C7G G25A — higher, 0.104
- A8C C19A — lower, 0.0449
- A8C C85U — higher, 0.886
- A8U C64U — higher, 1.11
- A8U C14G — higher, 0.237
- A8U C61U — higher, 0.739
- A8U C61A — higher, 0.831
- A8G C13U — lower, 0
- A8G C13G — higher, 0.0923
- A8G G35U — higher, 0.306
- A8G C84A — higher, 0.598
- A8C G73U — higher, 0.264
- C7U C13A — higher, 0.124
- C7A G80U — higher, 0.152
- C7A G80A — higher, 0.0739
- C7G U23C — lower, 0
- A8U C57A — higher, 1.05
- A8U C57G — higher, 1.07
- A8G G76A — higher, 1.09
- C7G G82C — lower, 0
- A8U G67A — higher, 0.855
- A8U G67U — higher, 0.898
- C7U G76A — higher, 1.09
- C7U G76U — higher, 0.755
- C7U C18G — higher, 0.0639
- A8G U9G — higher, 0.831
- A8G G82U — higher, 0.369
- C7G U65G — higher, 0.199
- C7G U65C — higher, 0.0831
- C7U C24U — higher, 0.261
- C7U C15G — higher, 0.536
- C7U G31U — higher, 0.575
- A8G C49A — higher, 0.939
- C7U C48G — higher, 0.831
